Test results taken from the supplement of paper PMC12042874.
± gives the uncertainty stated by the source.

Experiment: amyloid nucleation score (Sup35N fusion, yeast selection) (log enrichment); library NNK2; higher = more nucleation; inactive = no reads after selection
Method in brief: (§1)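 After 24 hours of induction with 100 μM copper sulfate, psi-negative yeast expressing peptides of 20 random codons fused to Sup35N were grown for 7 days at 30°C on medium lacking adenine and uracil. Input and output plasmid inserts were sequenced with Illumina, and sequences with under 100 input reads were discarded. Scores for nucleation are the DiMSum log enrichment of output over input reads, centred on the mode score of non-aggregating sequences.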

Row | Substance | amyloid nucleation score
1 | AAKTNCDC | -0.01 ± 1
2 | AALHNYAVSFCFMSPMKQKT | -0.542 ± 0.76
3 | AALNDNTSL | 5.71 ± 0.079
4 | AAVFMLQRLDFINRMASASF | 3.72 ± 0.055
5 | ACCLIAIWRPI | 5.47 ± 0.085
6 | ACFNLEKIVINYFWFS | 6.999 ± 0.039
7 | ACFWSVIVHTMKRTVQPQPK | 3.6 ± 0.09
8 | ACKVYKLAMNIVLGGTGWSD | 4.8 ± 0.077
9 | ACLGHSLAVVRTMTDSRKRL | 0.367 ± 0.74
10 | ACLHFVSYSELAVFDFSFGK | 6.89 ± 0.079
11 | ACRAICVPKGVGYWFCVTSE | 0.54 ± 0.51
12 | ACRELVWLG | 0.354 ± 0.65
13 | ACSVNCLRECNR | inactive
14 | ADATGVECPIYDRRRVNRTN | -0.235 ± 0.8
15 | ADLWKLGLRAILELGPL | -0.165 ± 1
16 | ADWMFRFMKERRQMVWNTRI | 0.044 ± 1.1
17 | AEDFVLAEEYI | -0.285 ± 0.76
18 | AEEQLLWFCYFRELKILNIF | inactive
19 | AEKQVCLAQKFLNLQLIFRW | 1.72 ± 0.12
20 | AEYIWWMVPVMKELVNEV | 0.362 ± 0.38

Row | Substance | amyloid nucleation score
21 | AEYKCAFFMSLNAVALDKRY | 3.2 ± 0.12
22 | AFAFINIWKHLYIFQGQPSL | inactive
23 | AFCLTLTGACLSMSDVARFT | 4.19 ± 0.098
24 | AFELSVTLCSTEMLQHRCIG | -0.081 ± 1.1
25 | AFFNE | 6.023 ± 0.039
26 | AFGRTTKKDVCLFGYPKQVE | -0.235 ± 0.46
27 | AFIRPIVSLVVLSQGV | 0.827 ± 0.6
28 | AFLFSRDCMERWTMYDGLWW | -0.063 ± 0.42
29 | AFTLQIHGFSVIVTASLQVS | -0.642 ± 1.1
30 | AFVCMRVVLICKIRLNFVRA | -0.519 ± 0.5
31 | AFYWVWDLDSGICNVSIFRL | -0.995 ± 0.34
32 | AGHWLCLVTNFVVRGGDKLF | 2.76 ± 0.13
33 | AGKFSWDNPYILLVNTI | inactive
34 | AGMHLRVWHSDTHHWLLLNR | 3.76 ± 0.074
35 | AGSARRLGLMPRGSGYALGW | 1.44 ± 0.17
36 | AILNAVGCNWGTRCDGLSVQ | -0.213 ± 0.48
37 | AILYDHSYSYWVSFRNVKCK | 0.215 ± 0.65
38 | AINLSDKAARVPLFK | -0.093 ± 0.34
39 | AISPVLC | 1.9 ± 0.43

Experiment: amyloid nucleation score (Sup35N fusion, yeast selection) (log enrichment); library NNK3; higher = more nucleation; inactive = no reads after selection
Method in brief: as §1

Row | Substance | amyloid nucleation score
40 | YNGLGMIVPMFLVHPLK | inactive
41 | YNLSRHQRTSTSLRCKGQSF | 0.241 ± 0.44
42 | YNMSDTVRYHMSQVADCYIV | inactive
43 | YNRMHMDCTKRIE | inactive
44 | YNRYV | inactive
45 | YNSFSDYYSVFTQHVRDS | inactive
46 | YNSIMFNGW | inactive
47 | YNVIT | inactive
48 | YNWIC | inactive
49 | YPCNFYWFRNILADTPIQYD | inactive
50 | YPSCRTSLSARHMVFQGITL | inactive
51 | YPSSPGH | inactive
52 | YQCTKMRLVSFRTVVLVLRG | 0.04 ± 0.8
53 | YQLELSSGSM | 0.116 ± 0.28
54 | YQLFRFWDVRDSNHSKKIMQ | inactive
55 | YQMTNCSLFFTTLYSVNYDY | 2.81 ± 0.082
56 | YRAKNSDRCPGDAYTYFVLR | inactive
57 | YRCDVFFLSVVVDSNFIDKL | 2.83 ± 0.079
58 | YRCFLNFIEMIDTCAGDLES | inactive
59 | YRCSRNVENYGPSKRGYYTE | inactive
60 | YRFGDILSVRSLQNFT | inactive

Row | Substance | amyloid nucleation score
61 | YRIVVVMMAIISTNDNIP | 0.371 ± 0.26
62 | YRKMRAEEDKWMVWVYSRRC | inactive
63 | YRKNLRHSLCRNWLYMDCHV | inactive
64 | YRWAFRWRLG | inactive
65 | YRWQLRKKALFFFGKFSVHY | inactive
66 | YRYHIMVMKAVIDTNSRKGW | inactive
67 | YSCFVRHCVDRFVRNDSDQT | inactive
68 | YSCVWNGKWCYYSTANDLS | inactive
69 | YSFECMSH | inactive
70 | YSFLGRNSIISCIR | inactive
71 | YSFRCPGFNYYL | inactive
72 | YSGDSWYVLYVGNPPGDYWR | 1.66 ± 0.09
73 | YSGKNLVRSTAGGAVKPVC | inactive
74 | YSGTRVPR | 0.471 ± 0.29
75 | YSHWMVRAA | -0.145 ± 0.81
76 | YSIISSYTFEFSKFAVLALL | inactive
77 | YSLGITGPHEAHQIVNLPWW | inactive
78 | YSLLSSMPLIRRRLGLYESW | inactive
79 | YSMQGYRCMYLGDNVAVLAF | inactive
80 | YSNSLRRTSPQEHS | inactive
81 | YSRSTSSEMEAERGSAWLES | inactive

Row | Substance | amyloid nucleation score
82 | YSSSRLI | inactive
83 | YSVIYDRSYRIV | inactive
84 | YSVPCSWWTLQLGILPLSRR | inactive
85 | YSVVNDSGIFFYVGHHVFAV | inactive
86 | YTDIVSAIEEVF | inactive
87 | YTGYWTGLYYVFMEINGWGS | inactive
88 | YTLYLGCGTNDVWVDAYLYS | inactive
89 | YTRISTIFGYSAMVQFMPCQ | inactive
90 | YTRSCSMRLF | inactive
91 | YVCSDSMLEARVREGTEYRS | -0.259 ± 0.98
92 | YVDLQPITREADDLRALTFM | inactive
93 | YVEHAYIRWRSVCKSIFLFS | inactive
94 | YVGYRFSHFSSGKRSCSYL | inactive
95 | YVHFAN | inactive
96 | YVIMAFLAV | inactive
97 | YVKIDSRFHGVSHFRFHTAY | inactive
98 | YVLSATG | inactive
99 | YVPFNFMKHVIATVLSGV | 0.014 ± 0.77
100 | YVRDLGSWMT | inactive
101 | YVTTMFEITRGRSWYSRSLG | 0.611 ± 0.21
102 | YVVEICAV | inactive

Row | Substance | amyloid nucleation score
103 | YVVVCSCAWS | 2.63 ± 0.074
104 | YVWMVSYMFLDFLDSTLALP | inactive
105 | YVYESFGWVSGNFKVWF | inactive
106 | YWDDSMKYDLKMVERSVGGK | inactive
107 | YWGKRSF | inactive
108 | YWKFWIKSDVYCRSISGWCR | inactive
109 | YWNIMIGYLLKSTGSGRSA | inactive
110 | YWSCRWGLVLVS | inactive
111 | YWTANTDYTNVIGYKNTYVH | -0.337 ± 0.33
112 | YWYYGCGSVGFAIRPWMSGI | 1.58 ± 0.11
113 | YYFLDRGGITSTIFRLLCPF | inactive
114 | YYFLLIGSW | inactive
115 | YYGGVLVSHRKPSGVCYGYG | inactive
116 | YYGMMYEGGYAVIDIGLGHL | inactive
117 | YYIPFASFVSQTCY | inactive
118 | YYLSFVKKCNDSEVIWTKSV | inactive
119 | YYLVSHWWFGQCFDHVVS | inactive
120 | YYPLLIPLY | inactive
121 | YYWMAWRTLGAVRAG | -0.458 ± 0.5
